Measurements: article PMC3683045, “Induced tRNA Import into Human Mitochondria: Implication of a Host Aminoacyl-tRNA-Synthetase”

Target: preKARS2 (cytosolic precursor of human mitochondrial lysyl-tRNA synthetase) (human, UniProt Q15046-2 1-625)
Assay: EMSA; 10 mM Mg2+; EMSA: 20 mM Tris-HCl pH 7.5, 150 mM NaCl, 10 mM MgCl2, 5 mM DTT, 10% glycerol, 0.1 mg/ml BSA, 30 C, 15 min; native 8% PAGE in 0.5x Tris-borate pH 8.3, 5% glycerol
Conditions: protein: recombinant; tags: C-terminal 6xHis; chain copies: 2; label: 5'-32P; D-arm and F-hairpin with linker

Sequence of preKARS2 (cytosolic precursor of human mitochondrial lysyl-tRNA synthetase) (Q15046 other isoform, or with tags, fused parts or gaps): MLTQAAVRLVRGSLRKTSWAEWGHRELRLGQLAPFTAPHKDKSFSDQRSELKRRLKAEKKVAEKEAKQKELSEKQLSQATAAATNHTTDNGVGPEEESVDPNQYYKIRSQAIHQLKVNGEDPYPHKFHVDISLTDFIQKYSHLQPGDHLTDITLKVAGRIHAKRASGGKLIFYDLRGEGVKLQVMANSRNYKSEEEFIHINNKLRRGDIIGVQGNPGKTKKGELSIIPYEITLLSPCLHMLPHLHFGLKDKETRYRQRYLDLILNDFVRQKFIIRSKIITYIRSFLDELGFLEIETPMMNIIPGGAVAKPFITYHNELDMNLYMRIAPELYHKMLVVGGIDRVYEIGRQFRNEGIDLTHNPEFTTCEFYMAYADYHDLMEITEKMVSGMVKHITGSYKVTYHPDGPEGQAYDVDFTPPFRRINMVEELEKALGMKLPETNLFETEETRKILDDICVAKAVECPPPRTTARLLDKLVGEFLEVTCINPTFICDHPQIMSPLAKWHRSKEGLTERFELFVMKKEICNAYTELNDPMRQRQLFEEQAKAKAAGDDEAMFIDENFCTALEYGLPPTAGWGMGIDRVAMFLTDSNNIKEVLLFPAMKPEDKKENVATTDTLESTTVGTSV

Binder	Kd
FD-L (structured_RNA) RNA: GCGCAAUCGGUAGCGCCUCUUUACAGUGCUUAGUUCUCGAGCCCCCUACAGGGCUCUU	400 ± 50 nM
FD-H (structured_RNA) RNA: GCGCAAUCGGUAGCGCAGUAAGCACUGUAAAUGAGCCCCCUACAGGGCUCUU	400 ± 50 nM
